Laboratory results as given in patent US11180762B2, “Methods and compositions for the treatment of cancer” (CHILDREN'S MEDICAL CENTER CORPORATION, priority 2014, dated 2021).
Entries after “also recorded” stand apart in the source; their conditions may differ.

What was measured:
subcutaneous tumors = test: Tumor accumulation after intravenous injection of fluorescent EpCAM-AsiCs; format: in vivo, nude mice; details: tail vein
Description: To be clinically useful, EpCAM-AsiCs need to be taken up by disseminated tumor cells. […] The EpCAM-AsiCs were detected around the injection site on day 2, but were only found within the EpCAM+ tumor on day 4.

EpCAM+ cell lines = test: In vitro gene knockdown by AsiC designs; format: cell-based, human
[1] = test system: eGFP expression in BPLER and BPE cells; test: eGFP knockdown in GFP-expressing BPLER and BPE cells; format: cell-based, human; details: AsiC 4 μM without lipid; siRNA 100 nM with Dharmafect; 72 hours
Method: FIG. 21A depicts the design of EpCAM-AsiC, containing an EpCAM aptamer and a PLK1 siRNA (sense strand disclosed as SEQ ID NO: 1 and antisense strand disclosed as SEQ ID NO: 2). […] EpCAM-AsiC targeting GFP was Alexa647 or Cy3 labeled at the 3′ end of the antisense siRNA strand and incubated with BPLER and BPE cells. Uptake was assessed 24 hours later by flow cytometry (FIG. 21C). Data are representative of 3 independent experiments. Cy3 and Alexa647-labeled EpCAM-AsiC was taken up by MB468 and BPLER (EpCAM+ cells) respectively and not by BPE (EpCAM−). MFI of each peak is shown (mock, gray). FIG. 21D depicts graphs of experiments in which, to test for gene silencing, BPLER and BPE were treated with EpCAM-AsiC targeting GFP (4 μM) and compared to Transfection controls using Dharmafect and GFP-siRNA (100 nM). Knockdown was assessed by flow cytometry 72 hours after incubation. Controls were mock and Dhrmafect only treatment (lipid). (n=4).
(§1) For uptake and silencing treatment, cells were plated at low density (10,000 cells/well in 96-well plates) and treated immediately. All AsiC and siRNA treatments were performed in either OptiMEM or WIT medium. Cell viability was assessed by CellTiter-Glo (Promega) or by Trypan-Blue staining in 96-well plates.
Cells were transfected with Dharmafect I per the manufacturer's protocol. See FIG. 9 for all siRNA sequences.

AKT1 = AKT1 mRNA and protein knockdown in breast cancer cell lines; format: cell-based, human; details: basal-A, luminal, basal-B lines, fibroblasts
Method: as §1
For flow cytometry, cells were stained as previously described (Yu, F. et al (2007). let-7 Regulates Self Renewal and Tumorigenicity of Breast Cancer Cells. Cell 131, 1109-1123. ), briefly, direct immunostaining of EpCAM and AKT1 was performed using 1:50 dilutions of hAb for 30-60 minutes at 4° C. (BioLegend/BD). Cells were stained in PBS containing 0.5% FCS, 1 mM EDTA, and 25 mM HEPES. Samples were washed twice in the same buffer. Data was acquired using FACS-Canto II (BD Biosciences). Analyses were performed in triplicate and 10,000 gated events/sample were counted. All data analysis was performed using FlowJo (Treestar Inc.).
qRT-PCR analysis was performed as described (Petrocca, F., et al. (2008). E2F1-regulated microRNAs impair TGFbeta-dependent cell-cycle arrest and apoptosis in gastric cancer. Cancer Cell 13, 272-286). Briefly, total RNA was extracted with Trizol (Invitrogen) and cDNA prepared from 1000 ng total RNA using Thermoscript RT kit (Invitrogen) as per the […] (Applied Biosystems) and a BioRad C1000 Thermal Cycler (Biorad). Relative CT values were normalized to GAPDH and converted to a linear scale.

MB231-luc-mCherry tumors = test: Tumor inhibition, EpCAM− MB231-luc-mCherry xenograft; format: in vivo, nude mice; details: 5 mg/kg sc every 3 d (72 h) for 2 wks
Method: For tumor inhibition studies, MB468-luc (5×10^6) and MB231-luc-mCherry (5×10^5) cells trypsinized with Tryple Express (Invitrogen), resuspended in a 1:1 WIT-Matrigel solution and injected subcutaneously in the flank of 8-week old female Nu/J mice (Stock #002019, Jackson Laboratories). Tumors size was analyzed daily using the IVIS Spectra, after 5 days tumors were clearly visible. […] Mice were treated every 72 h for 14 days.

Argonaute (AGO) = test: PLK1 siRNA association with Argonaute (pan-AGO immunoprecipitation, qRT-PCR); format: cell-based, human; details: MDA-MB-468 cells treated 2 days; listed as PLK1 EpCAM-AsiCs
Description: MB-468 cells, treated with PLK1 EPCAM-AsiC or siRNA for 2 days, were lysed, and cell lysates were immunoprecipitated with pan-AGO antibody or IgG isotype control. The amount of PLK1 siRNA in the immunoprecipitates was quantified by Taqman qRT-PCR, presented as log2 mean with SEM, relative to miR-16. **, P<0.01 by Student's t-test relative to siRNA-treated cells. ND, not detectable. […] This is likely because most RNAs that are taken up by cells are not released from endosomes to the cytosol (A. Wittrup et al., Visualizing lipid-formulated siRNA release from endosomes and target gene knockdown. Nature Biotechnology 2015, in press).
Uptake was clearly detected at 22 hr, but increased greatly after 43 hr. To test whether EpCAM-AsiCs are specifically taken up by EpCAM bright cell lines, the 3′ end of the antisense strand of the AsiC was fluorescently labeled. […] Previous studies have shown that AsiCs are processed within cells by Dicer to release the siRNA from the aptamer (10, 12, 15).

[2] = test system: CD44+CD24low/− and ALDH+ cells; test: Proportion of cells with T-IC phenotype; format: cell-based, human; details: basal-A and luminal lines; listed as PLK1 EpCAM-AsiCs
MB468-luc cells = test: Tumor initiation by ex vivo treated EpCAM+ cells in nude mice; details: cells treated ex vivo 24 h/overnight, then implanted, imaged 20 days
Method: For tumor initiation studies 8-week old female Nu/J mice (Stock #002019, Jackson Laboratories) were injected subcutaneously with MB468-luc (5×10^6) cells pretreated for 24 h with EpCAM-AsiC-GFP, EpCAM-AsiC-PLK1 or untreated. Cells were trypsinized with Tryple Express (Invitrogen), resuspended in WIT media and injected subcutaneously in the flank. Following intraperitoneal injection of 150 mg/kg D-luciferin (Caliper Life Sciences) luminescent images of the whole body were taken every 5 days for a total of 20 days using the IVIS Spectra system (Caliper Life Sciences).

[3] = listed as EpCAM-AsiC targeting PLK1

| Molecule | tumor accumulation after intravenous injection (subcutaneous tumors) | gene knockdown, EpCAM+ vs EpCAM− cells (EpCAM+ cell lines) | eGFP knockdown, BPLER vs BPE [1] | AKT1 mRNA and protein knockdown across cell lines (AKT1) | growth of EpCAM− MB231 tumors (MB231-luc-mCherry tumors; [3]) | growth of EpCAM− MB231 tumors (MB231-luc-mCherry tumors; listed as PLK1-targeting AsiCs) | growth of EpCAM− MB231 tumors (MB231-luc-mCherry tumors; listed as PLK1 EpCAM-AsiCs) | PLK1 siRNA bound to Ago / in the RISC (Argonaute (AGO)) | proportion of cells with T-IC phenotype [2] | tumor initiation, EpCAM+ cells (MB468-luc cells; [3]) | tumor initiation, EpCAM+ cells (MB468-luc cells; listed as PLK1 EpCAM-AsiCs) |
| --- | --- | --- | --- | --- | --- | --- | --- | --- | --- | --- | --- |
| EpCAM-AsiC: EpCAM aptamer-siRNA chimera, siRNA cargo not specified at the place; 2'-fluoropyrimidines, 3'-dTdT (nucleic acid, DNA at T, 2'-fluoro at CU, RNA at AG, backbone not given here; further chemistry not fully specified, EpCAM aptamer-siRNA chimera, siRNA cargo not specified at the place; 2'-fluoropyrimidines, 3'-dTdT) sense: GCGACUGGUUACCCGGUCGUUUUGAAGAAGAUCACCCUCCUUATT antisense: UAAGGAGGGUGAUCUUCUUCATT | did not lead to significant AsiC accumulation within subcutaneous tumors | selectively knocked down expression in EpCAM+ breast and colon cancer cell lines but not in normal epithelial cells or mesenchymal tumor cells | uniform and selective for EpCAM+ cells | uniform and selective for EpCAM+ cells |  |  |  |  |  |  |  |
| PLK1 EpCAM-AsiC: EpCAM aptamer linked by U-U-U to PLK1 siRNA sense strand (SEQ ID NO: 1), annealed to antisense strand (SEQ ID NO: 2) (nucleic acid, DNA at T, 2'-fluoro at CU, RNA at AG, backbone not given here; EpCAM aptamer fused to sense strand) sense: GCGACUGGUUACCCGGUCGUUUUGAAGAAGAUCACCCUCCUUATT antisense: UAAGGAGGGUGAUCUUCUUCATT |  |  |  |  | remained unchanged | continued to grow | had no effect on EpCAM− mesenchymal TNBCs; also recorded: had no effect on EpCAM− basal-B xenografts | PLK1 siRNA immunoprecipitated with Ago; also recorded: PLK1 siRNA was found in the RISC | reduced the proportion of cells with the phenotype of T-ICs; also recorded: reduced CD44+CD24low and Aldefluor+ cells | did not show any sign of a tumor after 20 days; also recorded: no tumor initiation | completely blocked tumor formation; also recorded: eliminated tumor initiation by basal-like TNBCs; also recorded: eliminated their ability to form tumors in nude mice |
